For one substance, Kd results are on record in paper PMC4695338.

Where only a bound is given, the exact number is not on record here.

As a reminder, the Kd is the free concentration of one partner at which half of the binding sites on the other are occupied at equilibrium, for simple one-to-one binding.

Common to all, as to assay: EMSA
Holding throughout (conditions): EMSA: fluorescein-12 ssRNA incubated with MBP-tagged proteins, agarose gel; buffer, salt, pH and temperature not in the material
On the technique in general: In EMSA bound probe runs differently from free probe, usually more slowly.

Data set [1] has as its system Pdd1p MIM14_FL (Tetrahymena (species not given)).
Data set [2] deals with Pdd1p WT_HNG1 (hinge region 1) (Tetrahymena (species not given)).
The test system of data set [3] is Pdd1p WT_HNG2 (hinge region 2) (Tetrahymena (species not given)).
For data set [4], the system named is Pdd1p MIM22+Ins6K_FL (Tetrahymena (species not given)).
The test system of data set [5] is Pdd1p WT_FL (Tetrahymena (species not given)).

Regarding EGFP ssRNA, the Kd in data set [1] is 0.34 µM; in data set [2], 0.13 µM; in data set [3] it was more than 0.63 µM; in data set [4], 0.347 µM; in data set [5] it was 0.065 µM.
